{"source": "paper PMC10824102", "about": "(2024)", "key": {"[1]": {"molecular_target": "T1, full-length 6x-His-tagged human G3BP1 (human, UniProt Q13283 1-466)", "T1 sequence (Q13283 whole entry)": "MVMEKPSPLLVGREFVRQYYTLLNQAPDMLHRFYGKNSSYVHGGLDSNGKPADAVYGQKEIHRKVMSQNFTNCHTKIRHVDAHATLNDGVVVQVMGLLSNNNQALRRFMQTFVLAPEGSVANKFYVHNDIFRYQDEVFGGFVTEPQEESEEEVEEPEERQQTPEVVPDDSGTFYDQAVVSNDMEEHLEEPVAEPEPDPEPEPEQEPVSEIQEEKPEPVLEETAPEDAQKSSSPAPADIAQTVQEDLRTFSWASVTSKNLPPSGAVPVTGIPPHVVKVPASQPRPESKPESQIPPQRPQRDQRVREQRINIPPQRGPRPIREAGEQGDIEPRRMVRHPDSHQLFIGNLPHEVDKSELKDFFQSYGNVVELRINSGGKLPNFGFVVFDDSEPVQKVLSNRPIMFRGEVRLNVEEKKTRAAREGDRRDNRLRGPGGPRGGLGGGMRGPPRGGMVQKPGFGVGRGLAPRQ", "assay": "SPR"}, "[2]": {"molecular_target": "T1, full-length 6x-His-tagged human G3BP1", "assay": "FRET; competition with FAM-labeled USP10 FGDF peptide probe"}}, "data": [{"binder": "LTFGDFDEHEVDALASGITFGDFDD", "note": "[nsP3 25-mer peptide]", "values": [{"measurement": "Kd", "setting": "[1]", "result": 200, "unit": "nM"}, {"measurement": "IC50", "setting": "[2]", "result": 3100, "unit": "nM"}]}]}
